From a protein production outcome set (Wang et al. 2014)

Experiment: label from the status in PepcDB records
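Further: failed if final PepcDB status was selected cloned or expressed and not failed if soluble or beyond.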

Sequence	protein production
MVAARPAERSGDPAAVRVPVPSAWWVLIGGVIGLFASMTLTVEKVRILLDPIYVPSCNVNPIVSCGSVMTTPQASLLGFPNPLLGIAGFTVVVVTGVLAVAKVPLPRWYWIGLAVGILVGVAFVHWLIFQSLYRIGALCPYCMVVWAVIATLLVVVASIVFGPMRENRGSQERVGARLLYQWRWSLATLWFTTVFLLIMVRFWDYWSTLI	failed
MSYSVMFALLLLTPLLFSLLCFACRKRRLSATRTVTVLHSLGITLLLILALWVVQTAADAGEIFAAGLWLHIDGLGGLFLAILGVIGFLTGIYSIGYMRHEVAHGELSPVTLCDYYGFFHLFLFTMLLVVTSNNLIVMWAAIEATTLSSAFLVGIYGQRSSLEAAWKYIIICTVGVAFGLFGTVLVYANAASVMPQAEMAIFWSEVLKQSSLLDPTLMLLAFVFLLIGFGTKTGLFPMHAWLPDAHSEAPSPVSALLSAVLLNCALLVLIRYYIIICQAIGSDFPNRLLLIFGMLSVAVAAFFILVQRDIKRLLAYSSVENMGLVAVELGIGGPLGIFAALLHILNHSLAKTLLFCGSGNVLLKYGTRDLNVVCGMLKIMPFTAVLFGGGALALAGMPPFNIFLSEFMTITAGLARNHLLIIVLLLLLLTLVLAGLVRMAARVLMAKPPQAVNRGDLGWLTTSPMVILLVMMLAMGTHIPQPVIRILAGASTIVLSGTHDLPAQRSTWHDFLPSGTASVSEKHSER	failed
METPNPLTLSELPHDLLRNIFNRLSFADFHRATWNSISKQTAPPKTKSPWLILFPDEGVHGCVLYNPDEDRIYKSVRDFSGTIFLANSGNWFLVMDSKSNLYIIDVFSENRIDLPPLESLLSDNFTFEQKGDKELKWQASNDQILVFRLPRAEELRGILWVDEKMKEFVAVWFLEDSCNFLAFYKKADDHYSHIQLEYVITDVFQSVSDIVLHGCFLYIGVGDYIQIIDLSKDQGFKDVTRNYLFNVHNGPWGFRSIFNLVVTTSGEVLMVLNNLYEKNIESEKSFRIFKKDPNPDPNKHDNLLVEVDSLGNEEVMLLDLGITMHGIEPNSIYFTRHDRVVHRLYIS	not failed
MKLSLRYVLNQFLSTNLSIFFVLFAIVSMVFFIQLAKLTSSIEISFLDLLKLYGFMLPRILIFTLPISFFISLTLALFRLSKENESIVLFTLGFSPMILAKFFLKIASLISAFMLVVALVMIPIVFELQDNFVNYKSTQVKFNYKTGEFGQKFLDWMIFIEKQDSDKYENIIMYRPKHKADDKEQLIIAKEAHVQRKDDSFAFSLNQGKMYNFEQGQSIFSGEFDTLVVNTQFNTDNLQTKKFYEYWNDLNENPQRAREFVIYTTIALFPLASTLFALCFGLVTYRYEKGYVYLGMFGVIAIYFGLLSSFSQPPILACLGIFSLSLFVSAYCFKKMILSRY	failed
SAAPGPALCLFDVDGTLTAPRQKITKEMDDFLQKLRQKIKIGVVGGSDFEKVQEQLGNDVVEKYDYVFPENGLVAYKDGKLLCRQNIQSHLGEALIQDLINYCLSYIAKIKLPKKRGTFIEFRNGMLNVSPIGRSCSQEERIEFYELDKKENIRQKFVADLRKEFAGKGLTFSIGGQISFDVFPDGWDKRYCLRHVENDGYKTIYFFGDKTMPGGNDHEIFTDPRTMGYSVTAPEDTRRICELLFS	not failed
MPSTLQGTFHTYRIIRRLGQGAFGEVSLAGVLETGEVVALKRIHIRNTGGIPDVVVREIKALQSVSHPNVVALLDVFPKGQAIYLVQEYCTTDLAALLRRLPAPPPERIAKGLMLQLCRGLEALHAEGIMHRDVKPSNTLLSAASGTAKLADCGLARPLDGGERPAYTHAVATRWYRAPELLYGARAYGPAVDVWALGLVFAELLGLSPLVPGDNDIDQLGRVIATFGSMEPVWLGVRALPDWGKIAFPHCEPLPLGDLLPGAPAAALEFLAAFLRYDPAKRITAACAVRSTYLTATQPL	failed
MLKYSMHLNIILLEASLELVPKEIVNHPAVIKNAKRRNKKPEDTLLDISLHYHAMKYLENSHKRGRPDILHQALLVILTDPVIKGDIFIHTIQSKIIKVNPNMRPPKNYLRFIGLMEQLLKYGKIPINGDETLMEVTNLTLDNIVNRYDLILLSEKGEKINPEEICKLDEKWLLGIGAFPHGDFSDKILNLAKKIYSISGFPLETQQVLCRIFSACNSILGWPLEHHHHHH	failed
MLAAEANLELDRETIRRQLWQSEAPEKRAGSLRQLLARIEQSIPAALPPLLKATRTHIGLADGWEVDVHMLKQKGPLAAEDGDILNGELLESAKSPTQGAEDWLTFERQRVDELRAAHLTRLVETAEDRSDEEQVAFARRLLELDPASETAYRALMRTYVRMNDPAAARQTYLKCKSQLKDEFDAEPEESTTALARELGLIPAAQPAAAERPSAGPSGFADLLGQPRIIILPPESIFTDPLMERVGRALLEDVTIGLSQQRGFRVIAAHTSLEILSRSVDPARAVPRPLDLSFDYAVYVTIQGRDEDVYATCRLTRTTTSEVIWALELPLVMQKISESFAHLTRRIVSSLADTVERHELAMPIGDAPPSAYRLYLEGKRLIAQTDLQHLRQARKWFKSSLNRYENFSAAHAGVSRALGMEWLIRGMQDTELLDEANGAARQAQQSDPNSGRAYRELGFVALYRRRFDESLDYFQQAQDLNPNDADILADYADALCHYGDFDKALDLNNAAFKLNPLPPDYYYWNRGGIHFDRGEYQQAIEALEPVKSKQATARLLAAAHAMAGDMKKAGGYASVVLDNFPDFRSEDIRHFVPDRDPRYTETLIHGLHLAGLP	failed
MTAPLHLDSLFPSLDAIPEQYRPDAPIEQRDYLVDGQLRHWDGPLAPVRSPVFLAEADGERQVILGSTPLLDADAALAALDAAVRAYDHGQGLWPNLRVAERIQHVERFLARMREQREAVVKLLMWEIGKNLKDSEKEFDRTCDYIVDTIEALKELDRHSSRFELEQGTLGQIRRVPLGVALCMGPYNYPLNETFTTLIPALIMGNTVVFKPAKFGVLLIRPLLEAFRDSFPPGVINVIYGRGRETVSALMASGKVDVFAFIGTHSGASDLKKLHPRPHRLRAALGLDAKNPGIVLPQVDLDNAVNEAVTGALSFNGQRCTALKILFVHESVLRPFLDKFSARLASLKPGMPWEPGVALTPLPEPGKVDYLEGLLNDALAKGARVVNAGGGEHRQSFFYPALLSPVSPDMRLYHEEQFGPLVPVVPYRELDEVIDYVLRSDYGQQLSLFGNDPAQIGRLVDAFANQVGRINVNAQCQRGPDSYPFNGRKNSAEGTLSVHDALRVFSIRTLVATRDTEANKTLVSEII	failed
MFPGVFEHLLYQYTSAILSVGFLIFNGLFAVIYNPKKVVGIKGDPDYTFTDITVLIPVYNEVEDIFRKVIKSVSSMGLKFVVVGDGVDQPYRAITEQNGGIFIRLEERRGKRFALSEGMRYIDTRLVLLLDSDTFIDKRSLERMLSYMAEDVGGVSPSIRVWNNGKISYYYANFYEIMSEIVNRATSYFGRTIILSGQCVLYKTSAIRNYVMSNDFTSSKIFNISLKISDDRDLTEYIIERGYKAIKAIDAIAYTKPPENLSQFVKQVVRWTRANYLFFLRSLRDGSLSLRGNLYVFDIIYMNFLPILVIFSLIPLQYPRFDIFNTLSASITSLERLDIFQLILGIPIRAHLPPFDFVLVFILPRVLSIIGGVTFLLVMIKIMEKERGKTLMYGVIALIVQSLASFYSIASMWKQSWSSREKNRKSKK	failed
MPDTKIVDANNKFGFKLFSEIAKQDGNAKNISVSPTSVAIALAMTYNGASGSTQKAMAKTLELQGISLPELNSGYASLNKLLQNPGENVQLTIANSLWVNQDVSLRPDFVQTTRDFYQAKVTNLDFQNVTAVNTINSWVQENTKGKIDKIVDNIEPNQALFLINAIYFNGKWSNAFDKSQTTPQTFYTASGQQKQHPMMSQTGEYRYYETPQFQSVSLPYGQDGKVSLYIFLPTKNSNLKAFSQNLNAENWEKWMPQFRNREGSIRLPRFQTDYDITLNDALKSLGMAEAFSNKANFSGIGDNLTISQVRHKTVIEVNEEGTEASAATSVGMVATSLREPQQPFKMIVDRPFFYAIRDNQSKNILFMGAVVEPN	failed
MFYEKIQTPAYILEEDKLRKNCELLASVGEKSGAKVLLALKGFAFSGAMKIVGEYLKGCTCSGLWEAKFAKEYMDKEIHTYSPAFKEDEIGEIASLSHHIVFNSLAQFHKFQAKTQKNSLGLRCNVEFSLAPKELYNPCGRYSRLGIRAKDFENVDLSTIEGLHFHALCEESAGALEAVLKVFEEKFGKWIGQMKWVNFGGGHHITKKGYDVEKLIALCKNFSDKYGVQVYLEPGEAVGWQTGNLVASVVDIIENEKQIAILDTSSEAHMPDTIIMPYTSEVLNARILATRENEKISDLKESEFSYLLTGNTCLAGDVMGEYAFDKKLKIGDKIVFLDQIHYTIVKNTTFNGIRLPNLMLLNAKNELQMIREFSYKDYSLRN	failed
MIHYYKLFWINALNIKGRARRKEFWYPFLMNILINIMLEIIFFLLPIPAIIEDTVGWIVYILILVAMFTVTVRRFHDVGMTMLIPIIIFLIAVINDFSEFINSDIPTLDNSALTVIAVIFGVVYIVILIVSLAVCCTSGQKETNQYGVNPKAVE	failed
MKRTFKMALIASLAVGGSYVLYGSQNKEELSDLALSNVEALTLGTKDCMYQRNSRCYELVVGPPGEPVIIETSEEANWVNRYTIPE	failed
MTRQLLIVPIVKLKNLLTGRWLRYAFLSVAGNALIWGTSIQYLKVTKPTYTSEFALILSGASFGVNVNLPGIGQATSSSSSAIGSSTYDARANYEYIFTSEAVLKKAAAIAKIPEEQFSKPRIKLLDNSTIMQFEVTGKSPKEAQNKSLALYQAMVHQITVLRTGEINQRKDPTQKTLLSSQQKLERAQKHLSEYKLRSGLSFPDQIGNLSSNIEQLRRQRAEAKAQENATNQKLQQLAKNIGLSPQEAADAFLLRVDQIFQQNLKDYSEATTTLEILMTKYGPNHPQVVKERIRQEAALAALLERSQILLEKPMTTTILNRLALAVNGSGRDTLFQNLVTYQSDQKGLQSQVKTLDSEIQRLEKRLEILSQRQSKLENLKRDVQIAEAMFASTLTKLDLGQGDIFAAYPLVQMLVEPNLPDQPTAPKKSFILAGSAAGSIFSTLGLCLVWIRKPWIEKLSKWLS	failed
MQPFVYMAAPARIVFSAGSSADVAEEIRRLGLSRALVLSTPQQKGDAEALASRLGRLAAGVFSEAAMHTPVEVTKTAVEAYRAAGADCVVSLGGGSTTGLGKAIALRTDAAQIVIPTTYAGSEVTPILGQTENGVKTTMRGPEILPEVVIYDAELTLGLPVAISMTSGLNAMAHAAEALYARDRNPIASMMAVEGLRAMIEALPVVRQAPHDIGARETALYGAWLCGTVLGAVGMSLHHKLCHTLGGSLDLPHAETHAVLLPHTIAYVEEAAPNLLAPLAALVGGRAGAGLFDFAARLGAPSSLAALGVGADDLDPMAELATANPYWCPRPIEKTAIRDLLQRAFEGARPA	not failed
NLNSIQNFGAIDILCTDKTGTLTQDKVVLEYHLNVNGEDDTRVLRHAYLNSYFQTGYKNLMDLAIIHKTEEEEAADSRLIDLSENYVKVDEIPFDFTRRRLTTVVQDNKGKTQMVTKGAVEEMLSICAFAECNGGVQPLTDDVRYRILETVDNLNDKGFRVLAIAQKSNPSPIGAFGVKDECDMVLIGYLAFLDP	failed
